Five molecules from doi:10.1101/432989 (bioRxiv, 2018) can be followed below.

Data set [1] concerns the target MazF-mt9 (Mycobacterium tuberculosis). Kind of data set: ITC. A general note: ITC needs no label: the signal is the heat of the interaction.
The data set “crystal structure” deals with the molecule itself. Briefly: crystal structure.

Residue numbers refer to the chain shown, from its start. In names and notes the source's numbering stands.

B1: MazE-mt1 (natural protein)
chain: MKLSVSLSDDDVAILDAYVKRAGLPSRSAGLQHAIRVLRYPTLEDDYANAWQEWSAAGDTDAWEQTVGDGVGDAPR
For B1, the Kd (commonly the free concentration of one partner at which half of the binding sites on the other are occupied at equilibrium, for simple one-to-one binding) in data set [1] turned out to be 59.3 nM.

B2: MazE-mt1 D69A mutant (natural protein)
chain: B1 chain with D69A
Consider B2, for which the fold weakening of affinity against WT MazE-mt1 in data set [1] is 5.3 fold.

B3: MazE-mt9 (natural protein)
chain: MSTSTTIRVSTQTRDRLAAQARERGISMSALLTELAAQAERQAIFRAEREASHAETTTQAVRDEDREWEGTVGDGLG
In data set [1], B3 had a Kd of 17.5 nM. Also, the binding result in the data set “crystal structure” is “binds”.

B4: MazE-mt9 D74A mutant (natural protein)
chain: B3 chain with D74A
In turn, B4 displayed a fold increase of KD against WT MazE-mt9 in data set [1] of 2 fold.

B5: MazE-mt9 R46A-E48A-D74A triple mutant (natural protein)
chain: B3 chain with R46A, E48A, D74A
Consider B5, for which, in data set [1], the fold increase of KD against WT MazE-mt9 was 8 fold.
